Experimental data published in patent US7304034.

Assays:
[1] = biological target: cell surface binding sites for HMGB1 on RAW 264.7 cells; test: cell-based or functional assay
[2] = biological target: cell surface binding sites for HMGB1 on RAW 264.7 cells; test: 125I-HMGB1 cell surface binding to RAW 264.7 cells, 2 hours at 4 C, no competitor
[3] = biological target: RAGE on RAW 264.7 cells (mouse (murine RAW 264.7 cells)) (UniProt Q62151); test: cell-based or functional assay
RAGE on RAW 264.7 cells (mouse (murine RAW 264.7 cells)), sequence (Q62151 23-402): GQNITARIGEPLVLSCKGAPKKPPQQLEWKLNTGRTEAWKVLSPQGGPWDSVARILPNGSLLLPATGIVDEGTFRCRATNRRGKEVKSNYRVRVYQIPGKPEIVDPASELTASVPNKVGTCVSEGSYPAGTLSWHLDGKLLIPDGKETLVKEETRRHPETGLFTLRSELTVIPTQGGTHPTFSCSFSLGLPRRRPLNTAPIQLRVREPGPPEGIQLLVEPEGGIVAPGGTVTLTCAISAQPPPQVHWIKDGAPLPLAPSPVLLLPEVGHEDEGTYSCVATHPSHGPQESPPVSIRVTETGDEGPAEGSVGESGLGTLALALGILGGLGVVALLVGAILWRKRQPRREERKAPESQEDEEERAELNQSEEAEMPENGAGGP

Substance | inhibition of HMGB1 (1 µg/ml) induced TNF release from RAW 264.7 cells, apparent EC50 [1] [µg/mL] | total counts obtained in the absence of unlabeled HMGB1 proteins (CPM/well) [2] [CPM/well] | maximum inhibition of HMG-1 signaling (TNF release from RAW 264.7 cells) by anti-RAGE antibody [3] [%]
HMGB1 A box (Amino terminus + A Box mutant of human HMGB1) (from UniProt A9RA84 1-85) | 7.5 | – | –
Recombinant full length human HMGB1 (wild type HMGB1) (from UniProt A9RA84 1-215) (ligand) | – | 2.38e+06 | 40
